± gives the uncertainty stated by the source.
Experiment: protein stability index of a GFP-peptide fusion (yeast GPS) (PSI 1-4); higher = more stable; sorted into four equal gates, so the index is relative within each strain
In short: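 Peptides tiling yeast proteins in 17-residue segments were fused downstream of GFP, with Cherry expressed from the same plasmid. As a pooled library in yeast, mid-log cultures grown in leucine-free medium were sorted into four equal gates by GFP/Cherry fluorescence ratio. Gate plasmids were PCR-amplified and Illumina-sequenced, and barcodes linked reads to strains. Each peptide received a protein stability index equal to the sum of each gate's read frequency times its gate number.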

Row | Sequence | protein stability index (doa10∆) | protein stability index (pdr5∆) | protein stability index (san1∆) | protein stability index (ubr1∆)
1 | KYPMYMQLEEELMKLDG [MED6] | 2.14 ± 0.091 | 1.44 ± 0.084 | 1.39 ± 0.16 | 1.36 ± 0.06
2 | ETQPGCNEEQTLEAKIG [RPO31] | 3.21 ± 0.073 | 3.33 ± 0.069 | 2.96 ± 0.057 | 3.24 ± 0.053
3 | ANAVQNNNGNSAASKKK [SRP21] | 3.06 ± 0.11 | 3.29 ± 0.11 | 2.96 ± 0.092 | 2.93 ± 0.11
4 | DDDDEDDDEIVMPVPNV [SKP1] | 3.3 ± 0.064 | 3.06 ± 0.099 | 3.08 ± 0.11 | 3.21 ± 0.11
5 | DEAKDFIVSGTASDQLF [PUP3] | 2.74 ± 0.089 | 2.83 ± 0.07 | 2.57 ± 0.096 | 2.92 ± 0.076
6 | ASSWAKKIAQRERRAAL [RPL14A] | 2.53 ± 0.099 | 3.32 ± 0.14 | 2.62 ± 0.18 | 2.22 ± 0.079
7 | NIPQQQQMQPPNSSANN [GAL11] | 2.82 ± 0.062 | 2.9 ± 0.062 | 2.85 ± 0.048 | 2.75 ± 0.041
8 | RNQRKGAGSIFTSHTRL [RPL2A] | 2.03 ± 0.054 | 3.12 ± 0.067 | 2.73 ± 0.05 | 3.09 ± 0.059
9 | SPVYDVDPRIINSENDY [NUT1] | 2.92 ± 0.08 | 3.02 ± 0.074 | 2.39 ± 0.08 | 2.76 ± 0.059
10 | VENWIIDDKGVLMERKD [ITC1] | 1.69 ± 0.099 | 2.98 ± 0.18 | 3.09 ± 0.15 | 2.7 ± 0.1
11 | ARAPKYASKAVPHYNRL [RPL25] | 2.94 ± 0.078 | 3 ± 0.065 | 2.79 ± 0.052 | 2.98 ± 0.047
12 | VWNYTFMGTAFNQEGDY [PRP8] |  | 3.09 ± 0.19 | 2.73 ± 0.28 | 
13 | NYTGWKAISVGANTSAA [PRE9] | 1.23 ± 0.079 | 1.36 ± 0.076 | 1.24 ± 0.2 | 1.17 ± 0.062
14 | TAQKYPIYTGDGWVKLT [YMR153W/NUP53] | 1.63 ± 0.062 | 1.77 ± 0.06 | 1.62 ± 0.1 | 1.21 ± 0.041
15 | TEVIIRATRTQDVLGEN [RPS3] | 3.42 ± 0.26 | 2.92 ± 0.12 | 3.14 ± 0.13 | 3.35 ± 0.079
16 | KVLAAHTKFEVAIGLNG [RRP40] | 2.44 ± 0.088 | 2.56 ± 0.062 | 2.34 ± 0.072 | 2.89 ± 0.057
17 | SDSYKVSLQNFSSSVSL [RRP40] | 2.69 ± 0.055 | 1.8 ± 0.044 | 2.02 ± 0.079 | 1.91 ± 0.037
18 | RSTKDMIDAVFEQDSHL [SNF6] | 3.12 ± 0.068 | 3.34 ± 0.054 | 3.27 ± 0.053 | 3.14 ± 0.058
19 | WASKYGQEYPRIIGLSA [BRR2] | 1.47 ± 0.073 | 2.32 ± 0.089 | 1.87 ± 0.085 | 1.93 ± 0.052
20 | SCAIHARIVRVRSREDR [RPS26A] | 2.41 ± 0.14 | 1.39 ± 0.11 | 1.4 ± 0.18 | 2.62 ± 0.089

Row | Sequence | protein stability index (doa10∆) | protein stability index (pdr5∆) | protein stability index (san1∆) | protein stability index (ubr1∆)
21 | IQAGKFDNKSTSEEQEA [SNF2] | 3.28 ± 0.068 | 3.36 ± 0.16 | 2.84 ± 0.17 | 2.94 ± 0.12
22 | DLAMANSLRRVMIAEIP [RPB3] | 1.23 ± 0.061 | 1.36 ± 0.051 | 1.09 ± 0.18 | 1.44 ± 0.068
23 | VGPSEQNFAEEDDSSNS [REC8] | 2.56 ± 0.15 | 2.62 ± 0.11 |  | 
24 | NVSLIKIEGVATPQDAQ [RPL33A] | 2.74 ± 0.082 | 2.52 ± 0.061 | 2.38 ± 0.11 | 2.37 ± 0.059
25 | SQESINQKLALVIKSGK [RPL30] | 2.32 ± 0.097 | 2.65 ± 0.13 | 2.31 ± 0.11 | 2.4 ± 0.058
26 | PIYTGDGWVKLTYKSEL [YMR153W/NUP53] | 2.24 ± 0.081 | 2.38 ± 0.09 | 2.45 ± 0.11 | 1.98 ± 0.049
27 | NELPDIEALYDDDTFSD [RPN2] | 3.12 ± 0.1 | 3.35 ± 0.13 | 3.23 ± 0.12 | 2.98 ± 0.081
28 | VGLKNYDPQRDKRFSGS [RPL1A] | 3.23 ± 0.082 | 3.48 ± 0.1 | 3 ± 0.096 | 3.25 ± 0.061
29 | LSGLSADKPFTRLTAYQ [YML031W/NDC1] | 2.95 ± 0.058 | 3.14 ± 0.06 | 2.95 ± 0.058 | 2.97 ± 0.063
30 | IMRILKSNGLAPEIPED [RPS13] | 2.14 ± 0.09 | 3.09 ± 0.15 | 1.9 ± 0.22 | 2.91 ± 0.057
31 | KYLIKYNVFRQHTSFQE [CSI1] | 1.24 ± 0.069 | 1.2 ± 0.046 | 1.13 ± 0.14 | 1.19 ± 0.058
32 | TAEFGKILAGLHDTQIE [RPN10] | 3.23 ± 0.11 | 3.44 ± 0.11 | 3.13 ± 0.14 | 3.02 ± 0.1
33 | PLLVPGMTPCTVSPDFV [FAS1] | 1.64 ± 0.096 | 2.38 ± 0.055 | 1.98 ± 0.11 | 1.64 ± 0.065
34 | SGNGSNPNTNTNSNNTP [PGD1] | 2.78 ± 0.062 | 3 ± 0.056 | 2.95 ± 0.038 | 2.87 ± 0.041
35 | MMLGEHLMSWSKTGIIA [SIN4] | 1.6 ± 0.11 | 1.24 ± 0.11 | 1.06 ± 0.13 | 1.53 ± 0.27
36 | NMEKEKDRIIDERTKEF [YIL149C/MLP2] | 3.11 ± 0.078 | 2.93 ± 0.11 | 3.1 ± 0.074 | 3.16 ± 0.058
37 | QIDYKLESFQAVYNKLT [RPS7A] | 2.26 ± 0.043 | 2.4 ± 0.051 | 2.41 ± 0.063 | 2.85 ± 0.037
38 | IKTFLVDLTSSNFADSA [YDL116W/NUP84] | 2.3 ± 0.089 | 2.82 ± 0.094 | 2.78 ± 0.1 | 2.76 ± 0.069
39 | VNAMRVLYYRDARSSRN [PRE4] |  | 3.16 ± 0.23 | 2.57 ± 0.26 | 
40 | MRDKSFGRTLASVTKEI [RPL12A] | 3.25 ± 0.1 | 3.08 ± 0.12 | 2.87 ± 0.13 | 2.81 ± 0.18

Source: the supplement of paper PMC9732359
